T1: CD30 on the surface of Karpas 299 cells (human, UniProt P28908 19-595)
T1 sequence (looked up): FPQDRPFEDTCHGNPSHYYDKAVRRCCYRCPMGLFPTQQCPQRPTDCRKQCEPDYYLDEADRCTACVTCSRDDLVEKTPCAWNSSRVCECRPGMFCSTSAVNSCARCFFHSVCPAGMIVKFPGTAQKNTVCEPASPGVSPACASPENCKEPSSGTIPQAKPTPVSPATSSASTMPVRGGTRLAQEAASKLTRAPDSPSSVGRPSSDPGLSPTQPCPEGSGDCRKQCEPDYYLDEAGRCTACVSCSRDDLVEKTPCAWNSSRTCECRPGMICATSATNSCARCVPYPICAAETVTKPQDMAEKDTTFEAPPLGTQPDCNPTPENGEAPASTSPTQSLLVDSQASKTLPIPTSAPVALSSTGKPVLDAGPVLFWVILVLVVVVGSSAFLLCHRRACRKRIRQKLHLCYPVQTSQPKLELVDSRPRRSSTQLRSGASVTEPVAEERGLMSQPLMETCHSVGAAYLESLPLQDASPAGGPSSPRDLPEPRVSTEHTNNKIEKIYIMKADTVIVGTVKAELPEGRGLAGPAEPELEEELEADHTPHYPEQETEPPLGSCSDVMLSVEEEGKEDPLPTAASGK


Target: T1, CD30 on the surface of Karpas 299 cells
Experiment: cell-based or functional assay

growth level of Karpas 299 cells (percent cell growth, WST-8, 2 µg/ml antibody, 5 days) | Binder
106% | ChSan11 IgG1/kappa antibody (mouse-human chimeric anti-human CD30) (antibody) heavy: not shown VL: DIVLTQSPASLAVSLGQRATISCRASESVEYYGTGLMQWYQQKPGQPPKLLIYSASNVESGVPARFTGSGSGTDFSLNIHPVEEDDIAMYFCQQSRKVPWTFGGGTKLEIKR
41% | ChSan11.V279-Fcµtp multimer (antibody, human IgG1) heavy: not shown VL: DIVLTQSPASLAVSLGQRATISCRASESVEYYGTGLMQWYQQKPGQPPKLLIYSASNVESGVPARFTGSGSGTDFSLNIHPVEEDDIAMYFCQQSRKVPWTFGGGTKLEIKR
39% | ChSan11.H285-Fcµtp multimer (antibody, human IgG1) heavy: not shown VL: DIVLTQSPASLAVSLGQRATISCRASESVEYYGTGLMQWYQQKPGQPPKLLIYSASNVESGVPARFTGSGSGTDFSLNIHPVEEDDIAMYFCQQSRKVPWTFGGGTKLEIKR
43% | ChSan11.A287-Fcµtp multimer (antibody, human IgG1) heavy: not shown VL: DIVLTQSPASLAVSLGQRATISCRASESVEYYGTGLMQWYQQKPGQPPKLLIYSASNVESGVPARFTGSGSGTDFSLNIHPVEEDDIAMYFCQQSRKVPWTFGGGTKLEIKR
38% | ChSan11.L309-Fcµtp multimer (antibody, human IgG1) heavy: not shown VL: DIVLTQSPASLAVSLGQRATISCRASESVEYYGTGLMQWYQQKPGQPPKLLIYSASNVESGVPARFTGSGSGTDFSLNIHPVEEDDIAMYFCQQSRKVPWTFGGGTKLEIKR

Target: death receptor 4 (DR4) on the cell surface (Ramos, Colo-205, RPMI 8226 cells) (human, UniProt O00220 24-468)
Experiment: cell-based or functional assay

Binder | cell viability of Ramos cells at 100 ng/ml of antibody (alamarBlue) | cell killing of Ramos cells at 100 ng/ml of antibody (alamarBlue) | viability of Colo-205 cells at 100 ng/ml of antibody (alamarBlue)
HuYON007.V279-Fcµtp monomer (antibody, human IgG1, lambda) heavy: not shown light: QTVVTQEPSFSVSPGGTVTLTCRSSSGAVTTSNFANWVQQTPGQAPRGLIGGTNNRAPGVPDRFSGSILGNKAALTITGAQADDESDYYCALWYSNHWVFGGGTKLTVLGQPKAAPSVTLFPPSSEELQANKATLVCLISDFYPGAVTVAWKADSSPVKAGVETTTPSKQSNNKYAASSYLSLTPEQWKSHRSYSCQVTHEGSTVEKTVAPTECS | 80% | – | –
HuYON007.H285-Fcµtp monomer (antibody, human IgG1, lambda) heavy: not shown light: QTVVTQEPSFSVSPGGTVTLTCRSSSGAVTTSNFANWVQQTPGQAPRGLIGGTNNRAPGVPDRFSGSILGNKAALTITGAQADDESDYYCALWYSNHWVFGGGTKLTVLGQPKAAPSVTLFPPSSEELQANKATLVCLISDFYPGAVTVAWKADSSPVKAGVETTTPSKQSNNKYAASSYLSLTPEQWKSHRSYSCQVTHEGSTVEKTVAPTECS | 91% | – | –
HuYON007.A287-Fcµtp monomer (antibody, human IgG1, lambda) heavy: not shown light: QTVVTQEPSFSVSPGGTVTLTCRSSSGAVTTSNFANWVQQTPGQAPRGLIGGTNNRAPGVPDRFSGSILGNKAALTITGAQADDESDYYCALWYSNHWVFGGGTKLTVLGQPKAAPSVTLFPPSSEELQANKATLVCLISDFYPGAVTVAWKADSSPVKAGVETTTPSKQSNNKYAASSYLSLTPEQWKSHRSYSCQVTHEGSTVEKTVAPTECS | 83% | – | –
HuYON007.H285-Fcµtp multimer (antibody, human IgG1, lambda) heavy: not shown light: QTVVTQEPSFSVSPGGTVTLTCRSSSGAVTTSNFANWVQQTPGQAPRGLIGGTNNRAPGVPDRFSGSILGNKAALTITGAQADDESDYYCALWYSNHWVFGGGTKLTVLGQPKAAPSVTLFPPSSEELQANKATLVCLISDFYPGAVTVAWKADSSPVKAGVETTTPSKQSNNKYAASSYLSLTPEQWKSHRSYSCQVTHEGSTVEKTVAPTECS | – | ~100% | < 35%
HuYON007.L309-Fcµtp multimer (antibody, human IgG1, lambda) heavy: not shown light: QTVVTQEPSFSVSPGGTVTLTCRSSSGAVTTSNFANWVQQTPGQAPRGLIGGTNNRAPGVPDRFSGSILGNKAALTITGAQADDESDYYCALWYSNHWVFGGGTKLTVLGQPKAAPSVTLFPPSSEELQANKATLVCLISDFYPGAVTVAWKADSSPVKAGVETTTPSKQSNNKYAASSYLSLTPEQWKSHRSYSCQVTHEGSTVEKTVAPTECS | – | ~100% | < 35%
HuYON007.V279-Fcµtp multimer (antibody, human IgG1, lambda) heavy: not shown light: QTVVTQEPSFSVSPGGTVTLTCRSSSGAVTTSNFANWVQQTPGQAPRGLIGGTNNRAPGVPDRFSGSILGNKAALTITGAQADDESDYYCALWYSNHWVFGGGTKLTVLGQPKAAPSVTLFPPSSEELQANKATLVCLISDFYPGAVTVAWKADSSPVKAGVETTTPSKQSNNKYAASSYLSLTPEQWKSHRSYSCQVTHEGSTVEKTVAPTECS | – | ~100% | < 35%
HuYON007.A287-Fcµtp multimer (antibody, human IgG1, lambda) heavy: not shown light: QTVVTQEPSFSVSPGGTVTLTCRSSSGAVTTSNFANWVQQTPGQAPRGLIGGTNNRAPGVPDRFSGSILGNKAALTITGAQADDESDYYCALWYSNHWVFGGGTKLTVLGQPKAAPSVTLFPPSSEELQANKATLVCLISDFYPGAVTVAWKADSSPVKAGVETTTPSKQSNNKYAASSYLSLTPEQWKSHRSYSCQVTHEGSTVEKTVAPTECS | – | ~100% | < 35%
HuYON007.L309-Fcµtp monomer (antibody, human IgG1, lambda) heavy: not shown light: QTVVTQEPSFSVSPGGTVTLTCRSSSGAVTTSNFANWVQQTPGQAPRGLIGGTNNRAPGVPDRFSGSILGNKAALTITGAQADDESDYYCALWYSNHWVFGGGTKLTVLGQPKAAPSVTLFPPSSEELQANKATLVCLISDFYPGAVTVAWKADSSPVKAGVETTTPSKQSNNKYAASSYLSLTPEQWKSHRSYSCQVTHEGSTVEKTVAPTECS | 92% | – | –

From patent US20140037621A1 (JN BIOSCIENCES, published 2014)
